Tests used:
[1] = biological target: Mcl-1 (Homo sapiens) (UniProt Q07820); settings: cited from earlier work
[2] = biological target: Bcl-xL (Homo sapiens) (UniProt Q07817); test: ITC; settings: cited from earlier work
[3] = biological target: human Mcl-1 ΔPESTΔTM (human); test: NMR titration; 15N SOFAST-HMQC of 15N-Mcl-1 (100 μM) with unlabeled BH3 peptide added (TCTPBH3 0-500 μM, up to 5 eq.; TCTPBH3D16I and MuleBH3 up to 3 eq.); 950 MHz, 308 K, 50 mM MES pH 6.5, 50 mM EPPS, 50 mM NaCl, 2 mM TCEP; KD and koff from TITAN 2D line shape analysis, two-state model
[4] = biological target: human Mcl-1 ΔPESTΔTM (human); test: NMR competition (15N SOFAST-HMQC); 15N-Mcl-1 with an excess (5 eq. total) of an equimolar mix of TCTPBH3, TCTPBH3D16I and MuleBH3, 2 h at room temperature; populations from intensities of seven reporter residues; 950 MHz, 298 K, 50 mM MES pH 6.5, 50 mM EPPS, 50 mM NaCl, 2 mM TCEP
[5] = biological target: human Mcl-1 ΔPESTΔTM (human); test: SEC + other: SAXS; equimolar mix of TCTP and Mcl-1 (500 μM each), 2 h incubation, Superdex 200 10/300 in line with SAXS; 50 mM CHES pH 9, 50 mM NaCl, 2 mM TCEP; 37 °C (308 K in the legend)

UniProt Q07817, sequence (Q07817 whole entry): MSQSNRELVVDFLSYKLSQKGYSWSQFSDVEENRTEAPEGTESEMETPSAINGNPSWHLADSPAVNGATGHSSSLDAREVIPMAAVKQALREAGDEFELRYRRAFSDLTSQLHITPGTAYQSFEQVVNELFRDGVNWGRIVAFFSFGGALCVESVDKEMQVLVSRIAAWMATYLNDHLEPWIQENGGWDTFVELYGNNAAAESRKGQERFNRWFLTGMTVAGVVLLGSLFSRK
UniProt Q07820, sequence (Q07820 whole entry): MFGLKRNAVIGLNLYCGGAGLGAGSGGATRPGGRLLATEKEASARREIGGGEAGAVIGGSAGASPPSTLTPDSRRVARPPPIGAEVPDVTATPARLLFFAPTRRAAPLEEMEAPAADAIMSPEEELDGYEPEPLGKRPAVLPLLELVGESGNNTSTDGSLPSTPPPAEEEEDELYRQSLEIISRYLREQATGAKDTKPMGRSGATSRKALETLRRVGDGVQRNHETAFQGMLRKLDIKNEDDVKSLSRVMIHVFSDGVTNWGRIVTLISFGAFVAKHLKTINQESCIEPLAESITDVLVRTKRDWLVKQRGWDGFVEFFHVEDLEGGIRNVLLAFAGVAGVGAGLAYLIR

Question: With Mule BH3 (from UniProt Q7Z6Z7) as the molecule, how does the Kd [1] read?
Answer: The Kd was 0.029 µM.

Question: With TCTP BH3 (from UniProt P13693) as the molecule, how does the Kd [2] read?
Answer: The Kd was 12 µM.

Question: What does the source list for DEMFSDIYKIREIADGLCLEVE [TCTP BH3-like peptide (TCTPBH3)]?
Answer: Kd [3]: 7.9 µM; koff [3]: 56 s⁻¹; fold weaker affinity than TCTPBH3D16I and MuleBH3 [4]: 10 fold

B1: full-length human TCTP (FL-TCTP) (natural protein)
chain: MIIYRDLISHDEMFSDIYKIREIADGLCLEVEGKMVSRTEGNIDDSLIGGNASAEGPEGEGTESTVITGVDIVMNHHLQETSFTKEAYKKYIKDYMKSIKGKLEEQRPERVKPFMTGAAEQIKHILANFKNYQFFIGENMNPDGMVALLDYREDGVTPYMIFFKDGLEMEKC
Question: With B1 as the molecule, how does the stoichiometry N [5] read?
Answer: Its stoichiometry N is 1.

Question: Which relative population of Mcl-1 bound (in the mix of three peptides) [4] does the source give for DEMFSIIYKIREIADGLCLEVE [TCTP BH3-like peptide D16I mutant (TCTPBH3D16I)] here?
Answer: The relative population of Mcl-1 bound (in the mix of three peptides) was 45%.

Reference: PMC10333598
